Experimental data published in patent US20220162314A1 (ASHER BIOTHERAPEUTICS, published 2022).

Experiments:
[1] = target: T1, CD8 on human CD8+ T cells (CD3+CD8a+CD8b+ cells of hPBMCs) (human, UniProt P01732 22-235; P10966 22-210); assay: flow cytometry on human PBMCs, CD8+ T cells (CD3+CD8a+CD8b+), anti-human Fc MFI
T1 construct: whole, on cells; also called CD8ab+ T cells
Experimental: (§1) Binding of CD8ab antibodies to T cells (FIG. 4) and NK cells (FIG. 5) in hPBMCs was detected by staining with anti-human Fc antibody conjugated to APC. Anti-hFc was used to measure the binding of CD8 antibodies containing hFc. Mean fluorescence intensity (MFI) of staining with anti-hFc is used to denote binding. Binding of anti-hFc was determined in CD3+CD8a+CD8b+ cells (CD8+ T cells) and CD3-CD56+CD8a+ cells (CD8+NK cells).
(§2) The binding of CD8ab antibodies on cells was determined by flow cytometry. Freshly isolated PBMCs were incubated with CD8ab antibodies for 2 hours at 4° C. Cells were then stained with antibodies against surface markers CD3 (UCHT1), CD4 (RPA-T4), CD8a (SK1), CD56 (HCD56), and anti-human Fc antibody (HP6017). Anti-human Fc antibody was used to measure the binding of CD8ab antibodies containing hFc. Stained cells were washed and analyzed by flow cytometry and mean fluorescence intensity (MFI) of staining with anti-hFc was used to denote binding.

[2] = target: T2, CD8aa on human CD8+ NK cells (CD3-CD56+CD8a+ cells of hPBMCs) (human, UniProt P01732 22-235); assay: flow cytometry on human PBMCs, CD8+ NK cells (CD3-CD56+CD8a+), anti-human Fc MFI
T2 construct: whole, on cells; also called CD8aa+ NK cells
T2 sequence (P01732 22-235): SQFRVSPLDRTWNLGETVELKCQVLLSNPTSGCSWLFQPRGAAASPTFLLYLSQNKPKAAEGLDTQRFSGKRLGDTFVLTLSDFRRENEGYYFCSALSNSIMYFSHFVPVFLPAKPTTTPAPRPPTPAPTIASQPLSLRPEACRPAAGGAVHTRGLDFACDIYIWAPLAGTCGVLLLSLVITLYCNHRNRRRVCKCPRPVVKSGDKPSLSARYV
Experimental: as §1, §2

[3] = target: T3, Recombinant human CD8ab protein (extracellular domains of CD8a and CD8b with leucine zippers and tags) (human, UniProt P01732 22-182; P10966 22-170); assay: ELISA: antigen coated on the plate, antibody titrated, anti-IgG (Fc)-HRP and TMB, A450
T3 construct: extracellular domain; Secreted from HEK293 cells; also called recombinant CD8ab; soluble CD8ab antigen; not shown: acidic leucine zipper; 8x Histidine tag; basic leucine zipper; Strep-tag II
T3 sequence (P01732 22-182, chain 1 of 2): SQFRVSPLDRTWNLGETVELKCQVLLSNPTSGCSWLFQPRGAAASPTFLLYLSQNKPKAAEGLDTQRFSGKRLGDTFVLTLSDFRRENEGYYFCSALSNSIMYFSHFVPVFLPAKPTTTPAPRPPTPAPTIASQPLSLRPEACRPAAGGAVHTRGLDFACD
T3 sequence (P10966 22-170, chain 2 of 2): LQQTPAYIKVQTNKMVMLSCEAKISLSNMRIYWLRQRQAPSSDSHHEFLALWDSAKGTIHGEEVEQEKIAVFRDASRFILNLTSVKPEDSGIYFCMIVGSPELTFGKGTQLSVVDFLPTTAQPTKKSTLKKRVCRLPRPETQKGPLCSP
Experimental: (§3) Binding specificity of the antibodies was determined by ELISA. […] of recombinant CD8ab, CD8a (Sino biological), CD8b (Sino biological) and ovalbumin (Sigma) or Erb2 (human epidermal growth factor receptor 2) (Sino biological) in PBS were coated onto the maxisorp plate overnight at 4° C. Ovalbumin or Erb2 was used as negative control. Plate was then blocked with casein blocking solution (Thermo Scientific) for 1 hr at room temperature. After blocking, plate was washed with wash buffer (PBS/0.05% Tween-20). Next, dilution of antibody from 30 nM to 0.0009 nM in PBS/0.5% BSA/0.05% Tween-20 was added onto the plate and incubated for 1-2 hr at room temperature. After incubation, plate was washed, and incubated with anti-human IgG (Fc specific)-HRP conjugate or anti-mouse IgG (Fc specific)-HRP conjugate (Jackson Immunoresearch) in PBS/0.5% BSA/0.05% Tween-20 for 1 hr. Binding was detected by adding TMB substrate (SeraCare) to the plate, followed by stopping solution of 0.1M HCl. Binding absorbance was read using GloMax® Discover Microplate Reader (Promega).

[4] = target: T4, Recombinant CD8a (Sino biological) (human, UniProt P01732 22-182); assay: as above
T4 construct: also called CD8a alone
T4 sequence (P01732 22-182 limits assumed): as the sequence (P01732 22-182, chain 1 of 2) above
Experimental: as §3

[5] = target: T5, Recombinant CD8b (Sino biological) (human, UniProt P10966 22-170, limits assumed); assay: as above
T5 construct: also called CD8b alone
T5 sequence (P10966 22-170 limits assumed): as the sequence (P10966 22-170, chain 2 of 2) above
Experimental: as §3

[6] = target: T3, Recombinant human CD8ab protein …; assay: SPR (Biacore T200, 37 C), antibody captured by anti-human IgG Fc, soluble CD8ab as analyte, 1:1 model
Experimental: (§4) Recombinant human CD8ab protein was generated. […] Antibodies were first captured on an anti-hJgG-Fc CM5 or CM4 surface prepared using the Human Antibody Capture Kit (Cytiva). […] Dissociation was monitored for 5-10 minutes, and the anti-hJgG-Fc surface was regenerated with 3M MgCl2 before recapturing mAb in each subsequent cycle. Binding data were analyzed by Biacore T200 Evaluation Software version 3.2 using a 1:1 binding model.

[7] = target: T3, Recombinant human CD8ab protein …; assay: SPR as in Example 1 (antibody captured, soluble CD8ab as analyte), steady state fit
Experimental: as §4

[8] = target: T1, CD8 on human CD8+ T cells …; assay: flow cytometry, CD8+ T cells, anti-human Fc MFI
Experimental: as §2

T1 sequence (P01732 22-235, chain 1 of 2): as the sequence (P01732 22-235) above
T1 sequence (P10966 22-210, chain 2 of 2): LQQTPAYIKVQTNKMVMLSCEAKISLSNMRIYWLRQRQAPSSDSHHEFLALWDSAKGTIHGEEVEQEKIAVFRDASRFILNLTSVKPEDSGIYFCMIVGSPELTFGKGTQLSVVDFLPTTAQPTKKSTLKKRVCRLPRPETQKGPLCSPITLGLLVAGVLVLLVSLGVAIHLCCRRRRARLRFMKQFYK

Row | EC50 (read off the curve) [1] | binding result [2] | EC50 (read off the curve) [3] | binding result [4] | binding result [5] | Kd [6] | koff [6] | kon [6] | Kd [7] | EC50 (read off the curve) [8] | EC50 (read off the curve) [5] | Binder
1 | ~0.3 nM | no binding (tested: 100 nM) | ~0.07 nM | no binding (tested: 30 nM) | no binding (tested: 30 nM) | 0.35 nM | 0.000571 s⁻¹ | 1.62e+06 M⁻¹ s⁻¹ | – | – | – | xhCD8v6 (antibody, human IgG1, V domains shown, also called xCD8v6) VH: EVQLVESGGGAVRPGGSLRLSCAASGFTFDDYGMSWVRQAPGKGLEWVSDINWSGEITAYADSVKGRFTISRDNAKNSLYLQMNSLRAEDTAVYYCARSNSYRWDDALDIWGQGTMVTVSS VL: not shown
2 | – | – | – | – | – | – | – | – | 236 nM | – | – | xhCD8v8 (antibody, human IgG1, V domains shown, also called xCD8v8) VH: QVQLQQSGAELVRPGSSVKISCKASGYAFSSYWMNWVKQRPGQGLEWIGQIYPGDGDTNYNGKFKGKATLTADKSSSTAYMQLSSLTSEDSAVYFCARSGAAFSSYYAMDYWGQGTSVTVSS VL: DIQMTQSPASLSVSVGETVTITCRASENIYSNLAWYQQKQGKSPQLLVYAATNLADGVPSRFSGSGSGTQYSLKINSLQSEDFGSYYCQHFWGTPWTFGGGTKLEIK
3 | ~0.3 nM | no binding (tested: 100 nM) | ~0.05 nM | no binding (tested: 30 nM) | – | 19.8 nM | 0.0183 s⁻¹ | 922000 M⁻¹ s⁻¹ | – | ~0.3 nM | ~0.09 nM | xhCD8v1 (antibody, V domains shown, Mouse monoclonal antibody against CD8b; also called mouse monoclonal antibody xhCD8v1; xCD8v1) VH: QVHLQQSGPELVKPGASVKMSCKTSGYTFTKYTMHWVKQGHEESLEWIGHFNPNNDETKYNQKFTGKATLTVDKSSTTAYMELRSLTSDDSALYYCARDGLGLRLFADWGQGTLITVSA VL: DIQMTQSPASLSASVGETVTITCGASENIYGALNWYQRKQGKSPQLLIFGATNLADGVSSRFSGSGSDRQYSLKISSLHPDDVATYYCQNILDTPWTFGGGTKLEIK
